From patent EP0808367B1 (MILLENNIUM PHARMACEUTICALS, INC., dated 2007)
Values belong to the molecule of their own block, whether it stands above or below them.

Columns and labels:
human α4β7 integrin [1] = target: T1, human α4β7 integrin (human, UniProt P13612 34-1032; P26010 20-798); assay: RPMI 8866 adhesion to chimera on protein A plate; chimera 1:2; preincubated with control anti-VCAM-1 MAb 2G7 (-); settings: scale: raw fluorescence
T1 construct: whole, on cells; also called α4β7 on RPMI 8866 cells; α4β7 on HuT 78 cells
T1 sequence (P13612 34-1032, chain 1 of 2): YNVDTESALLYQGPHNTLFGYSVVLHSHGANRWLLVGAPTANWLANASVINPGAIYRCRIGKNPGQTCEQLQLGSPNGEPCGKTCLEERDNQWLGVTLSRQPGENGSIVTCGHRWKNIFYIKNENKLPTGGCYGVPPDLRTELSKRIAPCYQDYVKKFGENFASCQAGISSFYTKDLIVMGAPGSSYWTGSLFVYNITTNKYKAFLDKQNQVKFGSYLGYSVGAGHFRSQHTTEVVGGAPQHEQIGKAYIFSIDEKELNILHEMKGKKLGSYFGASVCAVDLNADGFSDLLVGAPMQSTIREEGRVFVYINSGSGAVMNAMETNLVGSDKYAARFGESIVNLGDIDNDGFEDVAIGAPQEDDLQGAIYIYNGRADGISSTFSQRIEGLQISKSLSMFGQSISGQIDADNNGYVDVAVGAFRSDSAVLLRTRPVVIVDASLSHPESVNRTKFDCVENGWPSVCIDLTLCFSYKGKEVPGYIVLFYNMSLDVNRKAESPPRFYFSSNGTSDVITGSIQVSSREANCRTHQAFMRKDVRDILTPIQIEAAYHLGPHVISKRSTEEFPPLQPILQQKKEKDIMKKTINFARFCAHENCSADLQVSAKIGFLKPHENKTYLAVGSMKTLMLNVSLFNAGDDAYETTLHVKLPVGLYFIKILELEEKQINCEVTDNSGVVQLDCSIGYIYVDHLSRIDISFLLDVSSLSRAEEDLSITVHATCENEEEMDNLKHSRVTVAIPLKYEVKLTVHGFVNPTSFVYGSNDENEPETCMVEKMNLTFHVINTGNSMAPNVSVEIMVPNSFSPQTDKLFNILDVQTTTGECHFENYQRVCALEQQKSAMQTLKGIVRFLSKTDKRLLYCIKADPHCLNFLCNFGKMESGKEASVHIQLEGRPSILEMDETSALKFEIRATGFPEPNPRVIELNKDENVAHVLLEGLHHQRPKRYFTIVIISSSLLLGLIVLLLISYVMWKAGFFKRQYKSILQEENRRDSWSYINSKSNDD
T1 sequence (P26010 20-798, chain 2 of 2): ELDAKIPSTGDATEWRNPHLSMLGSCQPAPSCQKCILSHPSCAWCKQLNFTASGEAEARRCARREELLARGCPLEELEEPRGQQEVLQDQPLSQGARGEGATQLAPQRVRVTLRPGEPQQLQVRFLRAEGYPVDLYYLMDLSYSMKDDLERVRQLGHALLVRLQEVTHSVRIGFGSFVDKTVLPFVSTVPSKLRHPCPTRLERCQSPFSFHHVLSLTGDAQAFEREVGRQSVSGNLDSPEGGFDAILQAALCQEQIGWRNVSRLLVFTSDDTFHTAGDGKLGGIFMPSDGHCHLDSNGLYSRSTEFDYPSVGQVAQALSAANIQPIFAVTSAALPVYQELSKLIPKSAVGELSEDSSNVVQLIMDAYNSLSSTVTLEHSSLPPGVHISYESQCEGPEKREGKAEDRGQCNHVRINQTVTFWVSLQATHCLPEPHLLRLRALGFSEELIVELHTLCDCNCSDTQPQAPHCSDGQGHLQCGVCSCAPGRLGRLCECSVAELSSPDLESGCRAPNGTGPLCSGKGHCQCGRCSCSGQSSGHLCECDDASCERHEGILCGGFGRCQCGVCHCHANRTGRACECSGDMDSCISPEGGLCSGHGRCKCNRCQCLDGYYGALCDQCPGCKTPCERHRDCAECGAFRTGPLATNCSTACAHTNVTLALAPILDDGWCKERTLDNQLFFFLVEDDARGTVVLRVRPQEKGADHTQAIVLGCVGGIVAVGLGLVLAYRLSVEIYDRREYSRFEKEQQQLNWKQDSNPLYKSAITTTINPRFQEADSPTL

human α4β7 integrin [2] = target: T1, human α4β7 integrin; assay: RPMI 8866 adhesion to chimera on protein A plate; chimera 1:4; preincubated with blocking anti-human MAdCAM MAb 10G3 (+); settings: scale: raw fluorescence
human α4β7 integrin [3] = target: T1, human α4β7 integrin; assay: RPMI 8866 adhesion to chimera on protein A plate; chimera 1:32; preincubated with blocking anti-human MAdCAM MAb 10G3 (+); settings: scale: raw fluorescence
human α4β7 integrin [4] = target: T1, human α4β7 integrin; assay: RPMI 8866 adhesion to chimera on protein A plate; chimera 1:4; preincubated with control anti-VCAM-1 MAb 2G7 (-); settings: scale: raw fluorescence
human α4β7 integrin [5] = target: T1, human α4β7 integrin; assay: RPMI 8866 adhesion to chimera on protein A plate; chimera 1:16; preincubated with control anti-VCAM-1 MAb 2G7 (-); settings: scale: raw fluorescence
human α4β7 integrin [6] = target: T1, human α4β7 integrin; assay: RPMI 8866 adhesion to chimera on protein A plate; chimera 1:2; preincubated with blocking anti-human MAdCAM MAb 10G3 (+); settings: scale: raw fluorescence
human α4β7 integrin [7] = target: T1, human α4β7 integrin; assay: RPMI 8866 adhesion to chimera on protein A plate; chimera 1:8; preincubated with control anti-VCAM-1 MAb 2G7 (-); settings: scale: raw fluorescence
human α4β7 integrin [8] = target: T1, human α4β7 integrin; assay: RPMI 8866 adhesion to chimera on protein A plate; chimera 1:32; preincubated with control anti-VCAM-1 MAb 2G7 (-); settings: scale: raw fluorescence
human α4β7 integrin [9] = target: T1, human α4β7 integrin; assay: RPMI 8866 adhesion to chimera on protein A plate; chimera 1:8; preincubated with blocking anti-human MAdCAM MAb 10G3 (+); settings: scale: raw fluorescence
human α4β7 integrin [10] = target: T1, human α4β7 integrin; assay: RPMI 8866 adhesion to chimera on protein A plate; chimera neat; preincubated with control anti-VCAM-1 MAb 2G7 (-); settings: scale: raw fluorescence
human α4β7 integrin [11] = target: T1, human α4β7 integrin; assay: RPMI 8866 adhesion to chimera on protein A plate; chimera neat; preincubated with blocking anti-human MAdCAM MAb 10G3 (+); settings: scale: raw fluorescence
human α4β7 integrin [12] = target: T1, human α4β7 integrin; assay: RPMI 8866 adhesion to chimera on protein A plate; chimera 1:16; preincubated with blocking anti-human MAdCAM MAb 10G3 (+); settings: scale: raw fluorescence
human α4β7 integrin [13] = target: T1, human α4β7 integrin; assay: RPMI 8866 adhesion to chimera on protein A plate; supernatant neat; preincubated with control anti-VCAM-1 MAb 2G7 (-); settings: scale: raw fluorescence
human α4β7 integrin [14] = target: T1, human α4β7 integrin; assay: RPMI 8866 adhesion to chimera on protein A plate; supernatant 1:16; preincubated with control anti-VCAM-1 MAb 2G7 (-); settings: scale: raw fluorescence
human α4β7 integrin [15] = target: T1, human α4β7 integrin; assay: RPMI 8866 adhesion to chimera on protein A plate; supernatant 1:2; preincubated with control anti-VCAM-1 MAb 2G7 (-); settings: scale: raw fluorescence
human α4β7 integrin [16] = target: T1, human α4β7 integrin; assay: RPMI 8866 adhesion to chimera on protein A plate; supernatant 1:8; preincubated with control anti-VCAM-1 MAb 2G7 (-); settings: scale: raw fluorescence
human α4β7 integrin [17] = target: T1, human α4β7 integrin; assay: RPMI 8866 adhesion to chimera on protein A plate; supernatant 1:32; preincubated with control anti-VCAM-1 MAb 2G7 (-); settings: scale: raw fluorescence
human α4β7 integrin [18] = target: T1, human α4β7 integrin; assay: RPMI 8866 adhesion to chimera on protein A plate; supernatant 1:32; preincubated with blocking anti-human MAdCAM MAb 10G3 (+); settings: scale: raw fluorescence
human α4β7 integrin [19] = target: T1, human α4β7 integrin; assay: RPMI 8866 adhesion to chimera on protein A plate; supernatant neat; preincubated with blocking anti-human MAdCAM MAb 10G3 (+); settings: scale: raw fluorescence
human α4β7 integrin [20] = target: T1, human α4β7 integrin; assay: RPMI 8866 adhesion to chimera on protein A plate; supernatant 1:16; preincubated with blocking anti-human MAdCAM MAb 10G3 (+); settings: scale: raw fluorescence
human α4β7 integrin [21] = target: T1, human α4β7 integrin; assay: RPMI 8866 adhesion to chimera on protein A plate; supernatant 1:2; preincubated with blocking anti-human MAdCAM MAb 10G3 (+); settings: scale: raw fluorescence
human α4β7 integrin [22] = target: T1, human α4β7 integrin; assay: RPMI 8866 adhesion to chimera on protein A plate; supernatant 1:4; preincubated with blocking anti-human MAdCAM MAb 10G3 (+); settings: scale: raw fluorescence
human α4β7 integrin [23] = target: T1, human α4β7 integrin; assay: RPMI 8866 adhesion to chimera on protein A plate; supernatant 1:8; preincubated with blocking anti-human MAdCAM MAb 10G3 (+); settings: scale: raw fluorescence
human α4β7 integrin [24] = target: T1, human α4β7 integrin; assay: RPMI 8866 adhesion to chimera on protein A plate; supernatant 1:4; preincubated with control anti-VCAM-1 MAb 2G7 (-); settings: scale: raw fluorescence
human α4β7 integrin [25] = target: T1, human α4β7 integrin; assay: cell adhesion assay, CHO/P transfectants
human α4β1 integrin = target: T2, human α4β1 integrin (human, UniProt P13612 34-1032; P05556 21-798); assay: Figure 4B: Jurkat adhesion to CHO/P transfectants
T2 construct: whole, on cells; Carried by Jurkat and Ramos cells, which express α4β1 and not α4β7; also called α4β1 on Jurkat cells; α4β1 on Ramos cells
T2 sequence (P13612 34-1032, chain 1 of 2): as the sequence (P13612 34-1032, chain 1 of 2) above
T2 sequence (P05556 21-798, chain 2 of 2): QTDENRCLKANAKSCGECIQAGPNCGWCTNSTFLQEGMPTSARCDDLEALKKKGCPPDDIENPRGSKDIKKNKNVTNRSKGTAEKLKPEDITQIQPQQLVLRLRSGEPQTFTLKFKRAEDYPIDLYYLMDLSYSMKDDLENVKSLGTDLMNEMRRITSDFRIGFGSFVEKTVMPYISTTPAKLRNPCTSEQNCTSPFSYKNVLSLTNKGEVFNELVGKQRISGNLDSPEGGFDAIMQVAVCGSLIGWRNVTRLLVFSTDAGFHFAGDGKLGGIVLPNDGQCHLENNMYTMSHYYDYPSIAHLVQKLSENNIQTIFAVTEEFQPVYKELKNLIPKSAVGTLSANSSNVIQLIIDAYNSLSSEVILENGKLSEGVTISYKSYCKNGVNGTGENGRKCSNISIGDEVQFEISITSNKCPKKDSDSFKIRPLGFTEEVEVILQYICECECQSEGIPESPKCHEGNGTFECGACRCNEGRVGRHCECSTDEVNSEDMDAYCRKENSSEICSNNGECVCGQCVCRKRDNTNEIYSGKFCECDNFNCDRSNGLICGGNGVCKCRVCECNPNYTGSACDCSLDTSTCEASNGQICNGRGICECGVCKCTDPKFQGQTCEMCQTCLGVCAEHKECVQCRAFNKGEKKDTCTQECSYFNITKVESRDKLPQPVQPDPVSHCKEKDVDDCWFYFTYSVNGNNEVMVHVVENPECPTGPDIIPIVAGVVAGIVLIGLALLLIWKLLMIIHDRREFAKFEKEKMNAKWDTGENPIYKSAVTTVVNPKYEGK

human α4β7 integrin [26] = target: T1, human α4β7 integrin; assay: RPMI 8866 adhesion to CHO/P transfectants, 4°C

Molecule: human MAdCAM-Ig chimera in the supernatant of a cloned NSO line, Sample B (Fc fusion)
fluorescence of bound RPMI 8866 cells (human α4β7 integrin [13]): 196000
fluorescence of bound RPMI 8866 cells (human α4β7 integrin [14]): 52100
fluorescence of bound RPMI 8866 cells (human α4β7 integrin [15]): 196000
fluorescence of bound RPMI 8866 cells (human α4β7 integrin [16]): 196000
fluorescence of bound RPMI 8866 cells (human α4β7 integrin [17]): 2930
fluorescence of bound RPMI 8866 cells (human α4β7 integrin [18]): 1520
fluorescence of bound RPMI 8866 cells (human α4β7 integrin [19]): 6530
fluorescence of bound RPMI 8866 cells (human α4β7 integrin [20]): 1650
fluorescence of bound RPMI 8866 cells (human α4β7 integrin [21]): 3630
fluorescence of bound RPMI 8866 cells (human α4β7 integrin [22]): 3270
fluorescence of bound RPMI 8866 cells (human α4β7 integrin [23]): 2980
fluorescence of bound RPMI 8866 cells (human α4β7 integrin [24]): 196000

B1: seven domain human VCAM-1 (receptor, UniProt P19320 25-739, looked up)
chain: FKIETTPESRYLAQIGDSVSLTCSTTGCESPFFSWRTQIDSPLNGKVTNEGTTSTLTMNPVSFGNEHSYLCTATCESRKLEKGIQVEIYSFPKDPEIHLSGPLEAGKPITVKCSVADVYPFDRLEIDLLKGDHLMKSQEFLEDADRKSLETKSLEVTFTPVIEDIGKVLVCRAKLHIDEMDSVPTVRQAVKELQVYISPKNTVISVNPSTKLQEGGSVTMTCSSEGLPAPEIFWSKKLDNGNLQHLSGNATLTLIAMRMEDSGIYVCEGVNLIGKNRKEVELIVQEKPFTVEISPGPRIAAQIGDSVMLTCSVMGCESPSFSWRTQIDSPLSGKVRSEGTNSTLTLSPVSFENEHSYLCTVTCGHKKLEKGIQVELYSFPRDPEIEMSGGLVNGSSVTVSCKVPSVYPLDRLEIELLKGETILENIEFLEDTDMKSLENKSLEMTFIPTIEDTGKALVCQAKLHIDDMEFEPKQRQSTQTLYVNVAPRDTTVLVSPSSILEEGSSVNMTCLSQGFPAPKILWSRQLPNGELQPLSENATLTLISTKMEDSGVYLCEGINQAGRSRKEVELIIQVTPKDIKLTAFPSESVKEGDTVIISCTCGNVPETWIILKKKAETGDTVLKSIDGAYTIRKAQLKDAGVYECESKNKVGSQLRSLTLDVQGRENNKDYFSPELLVLYFASSLIIPAIGMIIYFARKANMKGSYSLVEAQKSKV
notes: whole, on cells; Expressed on transiently transfected CHO/P cells; also called pCD3VCAM
binding result (human α4β7 integrin [25]): no binding
binding result (human α4β1 integrin): binds

B2: murine MAdCAM-1 (receptor, UniProt Q61826 22-405, looked up)
chain: QSFQVNPPESEVAVAMGTSLQITCSMSCDEGVARVHWRGLDTSLGSVQTLPGSSILSVRGMLSDTGTPVCVGSCGSRSFQHSVKILVYAFPDQLVVSPEFLVPGQDQVVSCTAHNIWPADPNSLSFALLLGEQRLEGAQALEPEQEEEIQEAEGTPLFRMTQRWRLPSLGTPAPPALHCQVTMQLPKLVLTHRKEIPVLQSQTSPKPPNTTSAEPYILTSSSTAEAVSTGLNITTLPSAPPYPKLSPRTLSSEGPCRPKIHQDLEAGWELLCEASCGPGVTVRWTLAPGDLATYHKREAGAQAWLSVLPPGPMVEGWFQCRQDPGGEVTNLYVPGQVTPNSSSTVVLWIGSLVLGLLALVFLAYRLWKCYRPGPRPDTSSCTHL
notes: whole, on cells; Expressed on transiently transfected CHO/P cells; also called pCDMAD-7
binding result (human α4β7 integrin [26]): binds
binding result (human α4β1 integrin): no binding

Continued, values first:

fluorescence of bound RPMI 8866 cells (human α4β7 integrin [1]): 196000
fluorescence of bound RPMI 8866 cells (human α4β7 integrin [2]): 1750
fluorescence of bound RPMI 8866 cells (human α4β7 integrin [3]): 564
fluorescence of bound RPMI 8866 cells (human α4β7 integrin [4]): 196000
fluorescence of bound RPMI 8866 cells (human α4β7 integrin [5]): 4250
fluorescence of bound RPMI 8866 cells (human α4β7 integrin [6]): 3090
fluorescence of bound RPMI 8866 cells (human α4β7 integrin [7]): 18600
fluorescence of bound RPMI 8866 cells (human α4β7 integrin [8]): 3560
fluorescence of bound RPMI 8866 cells (human α4β7 integrin [9]): 2200
fluorescence of bound RPMI 8866 cells (human α4β7 integrin [10]): 196000
fluorescence of bound RPMI 8866 cells (human α4β7 integrin [11]): 3860
fluorescence of bound RPMI 8866 cells (human α4β7 integrin [12]): 482
Molecule: human MAdCAM-Ig chimera, construct HuMAdIg21 (entire extracellular domain of human MAdCAM-1 fused to Fc-mutated human IgG1 constant region) (from UniProt P01857 1-330) (Fc fusion)

fluorescence of bound RPMI 8866 cells (human α4β7 integrin [13]): 196000
fluorescence of bound RPMI 8866 cells (human α4β7 integrin [14]): 21800
fluorescence of bound RPMI 8866 cells (human α4β7 integrin [15]): 196000
fluorescence of bound RPMI 8866 cells (human α4β7 integrin [16]): 9570
fluorescence of bound RPMI 8866 cells (human α4β7 integrin [17]): 1930
fluorescence of bound RPMI 8866 cells (human α4β7 integrin [18]): 2570
fluorescence of bound RPMI 8866 cells (human α4β7 integrin [19]): 4570
fluorescence of bound RPMI 8866 cells (human α4β7 integrin [20]): 2440
fluorescence of bound RPMI 8866 cells (human α4β7 integrin [21]): 4090
fluorescence of bound RPMI 8866 cells (human α4β7 integrin [22]): 3920
fluorescence of bound RPMI 8866 cells (human α4β7 integrin [23]): 3490
fluorescence of bound RPMI 8866 cells (human α4β7 integrin [24]): 35500
Molecule: human MAdCAM-Ig chimera in the supernatant of a cloned NSO line, Sample C (Fc fusion)

fluorescence of bound RPMI 8866 cells (human α4β7 integrin [13]): 196000
fluorescence of bound RPMI 8866 cells (human α4β7 integrin [14]): 5470
fluorescence of bound RPMI 8866 cells (human α4β7 integrin [15]): 30800
fluorescence of bound RPMI 8866 cells (human α4β7 integrin [16]): 16300
fluorescence of bound RPMI 8866 cells (human α4β7 integrin [17]): 2660
fluorescence of bound RPMI 8866 cells (human α4β7 integrin [18]): 5120
fluorescence of bound RPMI 8866 cells (human α4β7 integrin [19]): 7350
fluorescence of bound RPMI 8866 cells (human α4β7 integrin [20]): 6550
fluorescence of bound RPMI 8866 cells (human α4β7 integrin [21]): 6790
fluorescence of bound RPMI 8866 cells (human α4β7 integrin [22]): 6020
fluorescence of bound RPMI 8866 cells (human α4β7 integrin [23]): 4510
fluorescence of bound RPMI 8866 cells (human α4β7 integrin [24]): 46900
Molecule: human MAdCAM-Ig chimera in the supernatant of a cloned NSO line, Sample D (Fc fusion)
